T1: QKI5 (UniProt Q96PU8 1-341)
T1 sequence: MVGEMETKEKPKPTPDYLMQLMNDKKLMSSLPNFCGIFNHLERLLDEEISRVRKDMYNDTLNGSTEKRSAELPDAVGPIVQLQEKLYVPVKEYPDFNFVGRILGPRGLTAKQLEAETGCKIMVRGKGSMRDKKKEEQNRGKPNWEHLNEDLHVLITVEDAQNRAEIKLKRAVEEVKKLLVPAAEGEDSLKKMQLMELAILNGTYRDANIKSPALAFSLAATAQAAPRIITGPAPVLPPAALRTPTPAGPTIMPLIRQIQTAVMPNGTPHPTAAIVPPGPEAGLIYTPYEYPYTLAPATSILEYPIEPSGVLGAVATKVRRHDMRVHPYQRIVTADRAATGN

B1: mutant CXCL2 promoter probe (dsDNA)
DNA 1: GAAAGGATGGAAAGCCATAACACTGTTAAC
DNA 2: GTTAACAGTGTTATGGCTTTCCATCCTTTC
B2: wild-type CXCL2 promoter probe (dsDNA)
DNA 1: GAAAGGATGGGGGATTGCAACACTGTTAAC
DNA 2: GTTAACAGTGTTGCAATCCCCCATCCTTTC

Molecular target: T1, QKI5
Test: EMSA; 50 fmol biotin-labelled probe; LightShift Chemiluminescent EMSA Kit per manufacturer; 50 fmol biotin-labelled probe, 4 ul QKI5; room temperature 20 min; native 8% PAGE; buffer, salt and pH not stated
Conditions: protein: commercial; chain copies: 2; label: 5'-biotin (cold version unlabelled); blunt

Binder | binding result
B1 | no binding
B2 | binds
